Values of other authors as cited in publication PMC4394549.

Target: Arginyl-tRNA synthetase (Methanothermobacter thermautotrophicus) (UniProt O27496)
UniProt O27496, sequence (O27496 whole entry): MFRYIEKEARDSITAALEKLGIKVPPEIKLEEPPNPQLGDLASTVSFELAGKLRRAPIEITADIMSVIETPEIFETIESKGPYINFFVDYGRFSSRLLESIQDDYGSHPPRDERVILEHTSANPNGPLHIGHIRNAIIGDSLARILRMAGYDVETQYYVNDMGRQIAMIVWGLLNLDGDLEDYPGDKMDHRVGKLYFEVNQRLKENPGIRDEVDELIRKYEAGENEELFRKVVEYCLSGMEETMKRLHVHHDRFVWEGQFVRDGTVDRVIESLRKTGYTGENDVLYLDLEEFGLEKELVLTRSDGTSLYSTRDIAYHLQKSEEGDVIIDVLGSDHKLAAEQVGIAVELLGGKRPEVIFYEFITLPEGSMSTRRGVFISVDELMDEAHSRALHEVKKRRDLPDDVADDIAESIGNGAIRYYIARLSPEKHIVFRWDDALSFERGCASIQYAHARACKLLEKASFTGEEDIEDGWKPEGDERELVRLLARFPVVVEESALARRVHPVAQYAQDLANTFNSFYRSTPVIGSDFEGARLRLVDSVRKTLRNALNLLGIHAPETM

- Kd: 250 nM
Substance: Seryl-tRNA synthetase (from UniProt O27194)
